± gives the uncertainty stated by the source.

The nature of this data set: amyloid nucleation score (Sup35N fusion, yeast selection) (log enrichment); library NNK3; higher = more nucleation; inactive = no reads after selection. The procedure, abridged:
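The nucleation score is the log enrichment of output over input reads, calculated with DiMSum and centred on the mode score of non-aggregating sequences. Sequences with under 100 input reads were excluded. Reads came from Illumina sequencing of plasmid inserts from psi-negative yeast expressing Sup35N fused to peptides of 20 random codons, induced 24 hours with 100 μM copper sulfate and grown 7 days at 30°C without adenine and uracil.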
RLVLYMPVLLSMVVTNWALL returned an amyloid nucleation score of 0.872 ± 0.15.

As to SNSRNSTGVVQMTRIPKMMR, the amyloid nucleation score entry is “inactive”.

Consider MKRGDDLHTLFITSVPKSGY, for which the amyloid nucleation score entry was “inactive”.

On to NCMEINVYFTFVEMQLAELD, for which the amyloid nucleation score was determined as 2.69 ± 0.055.

Regarding VNIIF, the amyloid nucleation score result was “inactive”.

For the substance KFHWWDTCTDVKSRLKVDVE, the amyloid nucleation score result is “inactive”.

For the substance YFLNSQVSNLLGS, the amyloid nucleation score result was “inactive”.

Take SGIYTMVWAFGFDVLYLLVS: the amyloid nucleation score result is “inactive”.

SLCGLFRYAWYQFEFNDVRA returned an amyloid nucleation score of 0.977 ± 0.12.

With FSGNGSSYYASSMNGDTVFL, the amyloid nucleation score entry was “inactive”.

As for ATTADLDRCSLFPKLRILRG, the amyloid nucleation score result was “inactive”.

KGASIYMVTLFSSSNAKM registered an amyloid nucleation score of 1.28 ± 0.093.

In the case of MEFYVYTMDKRCSRMFSWHS, the amyloid nucleation score result is “inactive”.

For YMDLSILGAMVSVSFNMG, the amyloid nucleation score was 2.56 ± 0.063.

Turning to ILAFLERYTLMWFRELYNAS, the amyloid nucleation score entry is “inactive”.

On to IICLK, for which the amyloid nucleation score entry is “inactive”.

SFPLSYSSYIRLRVFFVE: the amyloid nucleation score result is “inactive”.

Take SNCFRILYTCAVAQLPPCMR: the amyloid nucleation score entry was “inactive”.

Turning to FDRYYVSPLRVLHQVGCEIL, the amyloid nucleation score entry was “inactive”.

DNCCKLARVLAWFVFNRLNR: the amyloid nucleation score entry was “inactive”.

For the substance AHEQTQSDLPGVELPRWDR, the amyloid nucleation score entry is “inactive”.

LESFAGQAQWGCGSYQSFCL: the amyloid nucleation score result is “inactive”.

As for SVTFTSSVLYEGSKVSAFLL, the amyloid nucleation score result is “inactive”.

As to DLSRDMTNVSCRKSGLWGSG, the amyloid nucleation score result was “inactive”.

HVSLNLDSQNCCMSECFA: the amyloid nucleation score entry was “inactive”.

Consider TWKQDWDNFSYVLNSSSHST, for which the amyloid nucleation score entry is “inactive”.

Turning to LGVWRGIGPWRWAKKRWRVA, the amyloid nucleation score entry was “inactive”.

As to HKRIFGCVISVPFTSCFT, the amyloid nucleation score result is “inactive”.

Take KLASLFNYCSERKN: the amyloid nucleation score result is “inactive”.

NLVRSDSVRFAYVKWGPMHG: the amyloid nucleation score entry was “inactive”.

Consider FNFLVMILGITLPNNITFEH, for which the amyloid nucleation score amounted to 0.279 ± 0.17.

For SIFRKINMYL, the amyloid nucleation score entry was “inactive”.

For YVTDMRCGVL, the amyloid nucleation score result was “inactive”.

Regarding FLMNHVLQNW, the amyloid nucleation score result is “inactive”.

As for GLDGTGHKYDGQFARRWNLR, the amyloid nucleation score entry is “inactive”.

As for VDRVT, the amyloid nucleation score result was “inactive”.

On to SLVSGLRCVWLMFVSNGHQK, for which the amyloid nucleation score entry was “inactive”.

The substance IDILNG displayed an amyloid nucleation score of 0.152 ± 0.71.

RCTVDVFMHCSKLSNAELSL had an amyloid nucleation score of 0.833 ± 0.12.

AVSLCSDLYFVFGKWFGCEL showed an amyloid nucleation score of 1.11 ± 0.11.

IVCNIN gave an amyloid nucleation score of -0.036 ± 0.55.

Turning to NVADALS, the amyloid nucleation score entry is “inactive”.

For NKSRTYCSARRLHRGKFRLI, the amyloid nucleation score entry is “inactive”.

Regarding FRYRLWAMRDVKHSYDFSLW, the amyloid nucleation score result was “inactive”.

For LGFHTYRNLGKMHI, the amyloid nucleation score entry is “inactive”.

Turning to IPSTMRDDFAYTNCPNNSFL, the amyloid nucleation score result is “inactive”.

As to HNSACFANSDEVSVASRAMT, the amyloid nucleation score was found to be 2.45 ± 0.08.

As for LSFAVKCFRIGDMNAFNTFI, the amyloid nucleation score result was “inactive”.

As for SVDYDMARSVGCPFWSPKRV, the amyloid nucleation score entry is “inactive”.

VMKPSNVVQGSMNPESSLGM: the amyloid nucleation score entry was “inactive”.

As for MKPSKGVDL, the amyloid nucleation score entry was “inactive”.

For the substance LNRVINYLIKLYFAGWVSHD, the amyloid nucleation score entry was “inactive”.

With TKWANR, the amyloid nucleation score result is “inactive”.

(Values after the supplement of paper PMC12042874.)
